T1: RKO cells (Homo sapiens, UniProt Q9Y5L3)
T1 construct: colorectal cancer cells with endogenous ENTPD2 expression; host or cells: RKO
T1 sequence (Q9Y5L3 1-495): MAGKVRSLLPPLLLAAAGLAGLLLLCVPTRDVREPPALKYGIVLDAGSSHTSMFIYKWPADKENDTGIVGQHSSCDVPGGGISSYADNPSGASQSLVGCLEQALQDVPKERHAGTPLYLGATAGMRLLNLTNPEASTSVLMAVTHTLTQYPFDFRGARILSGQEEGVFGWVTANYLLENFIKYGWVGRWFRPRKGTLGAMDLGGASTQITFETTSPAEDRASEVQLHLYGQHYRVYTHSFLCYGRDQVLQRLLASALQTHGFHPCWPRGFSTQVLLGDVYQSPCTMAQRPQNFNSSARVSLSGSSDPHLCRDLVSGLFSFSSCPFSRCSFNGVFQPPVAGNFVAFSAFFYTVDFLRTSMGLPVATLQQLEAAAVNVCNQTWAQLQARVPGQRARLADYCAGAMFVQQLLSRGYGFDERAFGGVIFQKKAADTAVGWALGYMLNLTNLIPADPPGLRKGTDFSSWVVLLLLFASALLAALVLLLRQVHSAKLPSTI

T2: mouse ENTPD2 (Mus musculus, UniProt O55026)
T2 construct: expressed in transfected cells; host or cells: NIH/3T3 (retroviral transduction)
T2 sequence (O55026 1-495): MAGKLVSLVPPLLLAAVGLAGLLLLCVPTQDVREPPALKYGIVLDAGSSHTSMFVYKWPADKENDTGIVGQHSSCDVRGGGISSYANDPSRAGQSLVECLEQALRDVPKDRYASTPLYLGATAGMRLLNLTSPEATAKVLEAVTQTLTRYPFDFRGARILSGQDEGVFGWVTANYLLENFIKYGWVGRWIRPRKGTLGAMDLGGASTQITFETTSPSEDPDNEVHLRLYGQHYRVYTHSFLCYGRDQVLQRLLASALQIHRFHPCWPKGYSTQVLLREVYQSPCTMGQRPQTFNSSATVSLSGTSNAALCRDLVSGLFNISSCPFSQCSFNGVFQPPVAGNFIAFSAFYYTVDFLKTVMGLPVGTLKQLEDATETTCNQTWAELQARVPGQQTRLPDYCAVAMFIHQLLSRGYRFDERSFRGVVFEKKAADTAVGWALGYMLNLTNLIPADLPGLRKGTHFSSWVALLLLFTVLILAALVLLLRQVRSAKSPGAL


How the values were obtained:
RKO cells = target: T1, RKO cells; test: FACS binding to RKO cells with endogenous ENTPD2; conditions: read-out: Apparent FACS Affinity
Method: FACS screening: Specific binding of candidate antibodies to endogenously expressed ENTPD2 was assessed by flow cytometry. Cells were rinsed thoroughly with 1×PBS and treated with Accutase (Millipore #SCR005) to lift from growth plates and resuspended at approximately 1×10^5 cells/90 μL in 1× FACS buffer (2% FBS+0.1% NaN3 in PBS). In a 96-well U-bottom plate, 10 μL of 10× antibody solution in FACS buffer was pre-seeded and 90 μL of cell suspension was added. Cell were incubated for 30 minutes at 4° C., washed 1× with cold PBS and resuspended in 100 μL of 1:500 secondary antibody 1× FACS buffer (Allophycocyanin conjugated F(ab′)2 goat anti-human IgG, Fcγ specific; Jackson Immunoresearch, Cat#109-136-098). After additional incubation for 15 min at 4° C., cells were washed twice with PBS and resuspended in 100 μL of 1×FACS buffer with 4 μg/mL propidium iodide (Life Technologies, Cat#P3566). Geometric mean fluorescence intensity was calculated on live single cells using FlowJo software.

mouse ENTPD2 = target: T2, mouse ENTPD2; test: Mouse ENTPD2 NIH/3T3 cell-based functional assay
Description: Biochemical and cell-based functional assays were developed in-house to understand functional impact of anti-ENTPD2 Abs against purified extracellular domain of ENTPD2 (residues 29-462), as well as against the fully intact protein in the context of the native cell-based conformation. ENTPD2 hydrolyzes ATP to ADP, which can subsequently be detected using the HTRF Transcreener ADP2 TR-FRET Red Assay (BellBrook Labs, Madison, Wis.) where ENTPD2-produced ADP would compete with the ADP Tracer for binding to the anti-ADP-Tb antibody. The resulting signal is inversely proportional to the concentration of ADP in the sample.
To establish cell-based functional assays, human/cyno/mouse ENTPD2-engineered NIH/3T3 cells or RKO (ATCC, Manassa Va.) colorectal cancer cells with endogenous ENTPD2 expression were plated overnight at 150, 200 and 250 cells per well for NIH/3T3 mouse, cyno and human ENTPD2 lines, respectively, or 1000 cells per well for RKO in 384-well tissue culture plate, in 30 μl per well (Perkin Elmer, Waltham, Mass.). The following day cells were pre-incubated with Anti-ENTPD2 Abs in dose response for 60 min at 37° C., 5% CO2 (10 μl of 5× antibody dose per well), and subsequently stimulated with a final concentration of 10 μM ATP (Teknova, Hollister, Calif.) for 20 minutes at room temperature (10 μl of 5× (50 μM) ATP per well). Reactions were quenched with 40 mM EDTA/40 mM EGTA, 25 μl per well, and 15 μl of quenched media was transferred to low volume Proxiplates (PerkinElmer, Waltham, Mass.) for ADP detection. ADP production was detected with the Transcreener ADP2 TR-FRET Red Assay (BellBrook Labs, Madison, Wis.) with a final concentration of 4 nM ADP2 antibody and 13.4 nM of ADP Tracer in wells (4× solution was prepared and 5 μL of “Detection Reagent Mix” was added to the quenched conditioned media). Plates were incubated with detection reagents for 1 hour at room temperature prior to reading plates in HTRF mode.
HTRF signal (Emission at 620 nm and 665 nm) was assessed in both assays using the Envision plate reader in HTRF mode (Perkin Elmer, Waltham, Mass.). HTRF ratio was determined using the following formula: HTRF ratio=R=Emission at 665 nm/Emission at 620 nm×10,000. Subsequently % Residual Activity and % Inhibition were determined as follows:
Where R0% is the HTRF ratio of the negative control (0% enzyme activity), and R100% is the HTRF ratio of the positive control (100% enzyme activity). Data were analyzed in Microsoft Excel and graphed using GraphPad's Prism 7.0 software and IC50 values were obtained using non-linear regression, log (agonist) vs. response-variable slope (four parameters) analysis.
Anti-ENTPD2 mAb13 was identified as a mouse ENTPD2 selective Ab (FACS EC50 3-4 nM) with no binding to human or cyno ENTPD2.

Molecule	EC50 (RKO cells) [nM]	maximum target inhibition (mouse ENTPD2 inhibition) (mouse ENTPD2; NIH3T3-mouse ENTPD2 engineered cell line) [%]	% Inhibition at 100 nM (±Std Err) (mouse ENTPD2; mouse ENTPD2 NIH/3T3 cells, 100 nM) [%]
mAb7: humanized anti-human ENTPD2 antibody from mAb17; VH SEQ ID NO: 25, VL SEQ ID NO: 78 (antibody, V domains shown) VH: QVQLVQSGAEVVKPGASVKISCKASGYTFTDYNMDWVKQAPGQRLEWIGDINPKYDISTYNQQFKGKATITVDKSASTAYMELSSLRSEDTAVYYCARRGFFLYYGINYYYFDVWGQGTLVTVSS VL: EIVLTQSPATLSASPGEEITLSCSASSSVSYIHWYQQKPGQAPRLLIYSTSNLASGIPARFSGSGSGTFYTLTISSVEPEDAAVYYCHQWSSYPWTFGGGTKLEIK	0.4	–	–
mAb13: anti-mouse ENTPD2 antibody; HC SEQ ID NO: 193, LC SEQ ID NO: 204 (antibody) heavy: QVQLVQSGAELKQPGQSVKISCKASGYTFTHYGMNWVKQAPGQGLKWMGWINTDTGNPTYADDFKGRFVFSLDTSVSTAYLQISNLKNEDTATYYCVRYGTLYSGYGFFFDSWGQGTLVTVSSAKTTAPSVYPLAPVCGDTTGSSVTLGCLVKGYFPEPVTLTWNSGSLSSGVHTFPAVLQSDLYTLSSSVTVTSSTWPSQSITCNVAHPASSTKVDKKIEPRGPTIKPCPPCKCPAPNLLGGPSVFIFPPKIKDVLMISLSPIVTCVVVDVSEDDPDVQISWFVNNVEVHTAQTQTHREDYNSTLRVVSALPIQHQDWMSGKEFKCKVNNKDLPAPIERTISKPKGSVRAPQVYVLPPPEEEMTKKQVTLTCMVTDFMPEDIYVEWTNNGKTELNYKNTEPVLDSDGSYFMYSKLRVEKKNWVERNSYSCSVVHEGLHNHHTTKSFSRTPGK light: DIMMTQSPSSLSVSAGEKATITCKSSQSLFNSNTNKNYLNWYLQKPGQSPKLLFYYASTRHTGVPDRFIGSGSGTDFTLTITSVQDEDLADYYCQQWYSYPWTFGPGTKLEIKRADAAPTVSIFPPSSEQLTSGGASVVCFLNNFYPKDINVKWKIDGSERQNGVLNSWTDQDSKDSTYSMSSTLTLTKDEYERHNSYTCEATHKTSTSPIVKSFNRNEC	–	44	44 ± 7.3

Reference: patent publication US20220348651A1, “ENTPD2 ANTIBODIES, COMBINATION THERAPIES, AND METHODS OF USING THE ANTIBODIES AND COMBINATION THERAPIES” (Novartis AG, priority 2019, published 2022)
